This note sets out measurements from patent publication US20260167699A1 (Chugai, published 2026).

This test concerns the target T1, FcγRIIIa (human, UniProt P08637 17-208).
T1 construct: extracellular domain; also called 3a; FcγRIIIa extracellular domain
Description: SPR (Biacore). (In SPR one partner is held on a chip, and binding of the other changes the refractive index at the surface.)
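Note: antibody variants captured on an SPR sensor chip, with FcγRIIIa passed over as analyte in HBS-EP+ buffer at 25 °C.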

T1 sequence (P08637 other isoform, or with tags, fused parts or gaps): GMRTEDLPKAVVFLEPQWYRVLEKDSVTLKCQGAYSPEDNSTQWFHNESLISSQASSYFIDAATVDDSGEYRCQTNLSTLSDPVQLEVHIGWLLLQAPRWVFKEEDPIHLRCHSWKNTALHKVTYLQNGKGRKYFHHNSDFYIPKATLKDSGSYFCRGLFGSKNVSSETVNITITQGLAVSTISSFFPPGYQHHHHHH

B1: GpH7-A5/GpH7-B3 variant E269_06M/GpL16-k0 (antibody, human IgG1, kappa)
heavy 1: not shown
heavy 2: not shown
light: DIVMTQSPLSLPVTPGEPASISCQASESLVHSNRNTYLHWYLQKPGQSPQLLIYKVSNRFSGVPDRFSGSGSGTDFTLKISRVEAEDVGVYYCSQNTHVPPTFGQGTKVEIERTVAAPSVFIFPPSDEQLKSGTASVVCLLNNFYPREAKVQWKVDNALQSGNSQESVTEQDSKDSTYSLSSTLTLSKADYEKHKVYACEVTHQGLSSPVTKSFNRGEC
notes: copies: 1 + 1 + 2
For the molecule B1, the “He/Con 3a” value was 57.9 % of GpH7-A5/GpH7-B3/GpL16-k0.

B2: GpH7-A5/GpH7-B3 variant H268_09D/GpL16-k0 (antibody, human IgG1, kappa)
heavy 1: not shown
heavy 2: not shown
light: B1 light
notes: copies: 1 + 1 + 2
Regarding B2, the “He/Con 3a” value was 195 % of GpH7-A5/GpH7-B3/GpL16-k0.

B3: GpH7-A5/GpH7-B3 variant G236_15Y/GpL16-k0 (antibody, human IgG1, kappa)
heavy 1: not shown
heavy 2: not shown
light: B1 light
notes: copies: 1 + 1 + 2
On to B3, for which the “He/Con 3a” value is 112 % of GpH7-A5/GpH7-B3/GpL16-k0.

B4: GpH7-A5/GpH7-B3 variant G237_03V/GpL16-k0 (antibody, human IgG1, kappa)
heavy 1: not shown
heavy 2: not shown
light: B1 light
notes: copies: 1 + 1 + 2
For B4, the “He/Con 3a” value was 51.3 % of GpH7-A5/GpH7-B3/GpL16-k0.

B5: GpH7-A5/GpH7-B3 variant H268_20W/GpL16-k0 (antibody, human IgG1, kappa)
heavy 1: not shown
heavy 2: not shown
light: B1 light
notes: copies: 1 + 1 + 2
Consider B5, for which the “He/Con 3a” value is 82 % of GpH7-A5/GpH7-B3/GpL16-k0.

B6: GpH7-A5/GpH7-B3 variant E333_02A/GpL16-k0 (antibody, human IgG1, kappa)
heavy 1: not shown
heavy 2: not shown
light: B1 light
notes: copies: 1 + 1 + 2
On to B6, for which the “He/Con 3a” value was 108 % of GpH7-A5/GpH7-B3/GpL16-k0.

B7: GpH7-A5/GpH7-B3 variant H268_07I/GpL16-k0 (antibody, human IgG1, kappa)
heavy 1: not shown
heavy 2: not shown
light: B1 light
notes: copies: 1 + 1 + 2
Regarding B7, the “He/Con 3a” value is 84.1 % of GpH7-A5/GpH7-B3/GpL16-k0.

B8: GpH7-A5/GpH7-B3 variant H268_14T/GpL16-k0 (antibody, human IgG1, kappa)
heavy 1: not shown
heavy 2: not shown
light: B1 light
notes: copies: 1 + 1 + 2
Regarding B8, the “He/Con 3a” value was 90.3 % of GpH7-A5/GpH7-B3/GpL16-k0.

B9: GpH7-A5/GpH7-B3 variant E333_12R/GpL16-k0 (antibody, human IgG1, kappa)
heavy 1: not shown
heavy 2: not shown
light: B1 light
notes: copies: 1 + 1 + 2
In the case of B9, the “He/Con 3a” value was 92.2 % of GpH7-A5/GpH7-B3/GpL16-k0.

B10: GpH7-A5/GpH7-B3 variant E269_15Y/GpL16-k0 (antibody, human IgG1, kappa)
heavy 1: not shown
heavy 2: not shown
light: B1 light
notes: copies: 1 + 1 + 2
As for B10, the “He/Con 3a” value was 51.5 % of GpH7-A5/GpH7-B3/GpL16-k0.

B11: GpH7-A5/GpH7-B3 variant H268_15Y/GpL16-k0 (antibody, human IgG1, kappa)
heavy 1: not shown
heavy 2: not shown
light: B1 light
notes: copies: 1 + 1 + 2
For B11, the “He/Con 3a” value is 96.5 % of GpH7-A5/GpH7-B3/GpL16-k0.

B12: GpH7-A5/GpH7-B3 variant G237_14T/GpL16-k0 (antibody, human IgG1, kappa)
heavy 1: not shown
heavy 2: not shown
light: B1 light
notes: copies: 1 + 1 + 2
B12: the “He/Con 3a” value is 50.5 % of GpH7-A5/GpH7-B3/GpL16-k0.

B13: GpH7-A5/GpH7-B3 variant H268_05P/GpL16-k0 (antibody, human IgG1, kappa)
heavy 1: not shown
heavy 2: not shown
light: B1 light
notes: copies: 1 + 1 + 2
Take B13: the “He/Con 3a” value is 75.6 % of GpH7-A5/GpH7-B3/GpL16-k0.

B14: GpH7-A5/GpH7-B3 variant G236_20W/GpL16-k0 (antibody, human IgG1, kappa)
heavy 1: not shown
heavy 2: not shown
light: B1 light
notes: copies: 1 + 1 + 2
In the case of B14, the “He/Con 3a” value was 126 % of GpH7-A5/GpH7-B3/GpL16-k0.

B15: GpH7-A5/GpH7-B3 variant E269_18N/GpL16-k0 (antibody, human IgG1, kappa)
heavy 1: not shown
heavy 2: not shown
light: B1 light
notes: copies: 1 + 1 + 2
On to B15, for which the “He/Con 3a” value was 57.2 % of GpH7-A5/GpH7-B3/GpL16-k0.

B16: GpH7-A5/GpH7-B3 variant E269_19Q/GpL16-k0 (antibody, human IgG1, kappa)
heavy 1: not shown
heavy 2: not shown
light: B1 light
notes: copies: 1 + 1 + 2
As for B16, the “He/Con 3a” value was 64.3 % of GpH7-A5/GpH7-B3/GpL16-k0.

B17: GpH7-A5/GpH7-B3 variant E333_20W/GpL16-k0 (antibody, human IgG1, kappa)
heavy 1: not shown
heavy 2: not shown
light: B1 light
notes: copies: 1 + 1 + 2
Turning to B17, the “He/Con 3a” value was 104 % of GpH7-A5/GpH7-B3/GpL16-k0.

B18: GpH7-A5/GpH7-B3 variant H268_19Q/GpL16-k0 (antibody, human IgG1, kappa)
heavy 1: not shown
heavy 2: not shown
light: B1 light
notes: copies: 1 + 1 + 2
B18: the “He/Con 3a” value was 113 % of GpH7-A5/GpH7-B3/GpL16-k0.

B19: GpH7-A5/GpH7-B3 variant H268_04F/GpL16-k0 (antibody, human IgG1, kappa)
heavy 1: not shown
heavy 2: not shown
light: B1 light
notes: copies: 1 + 1 + 2
On to B19, for which the “He/Con 3a” value is 96 % of GpH7-A5/GpH7-B3/GpL16-k0.

B20: GpH7-A5/GpH7-B3 variant E333_03V/GpL16-k0 (antibody, human IgG1, kappa)
heavy 1: not shown
heavy 2: not shown
light: B1 light
notes: copies: 1 + 1 + 2
Consider B20, for which the “He/Con 3a” value was 106 % of GpH7-A5/GpH7-B3/GpL16-k0.

B21: GpH7-A5/GpH7-B3 variant H268_12R/GpL16-k0 (antibody, human IgG1, kappa)
heavy 1: not shown
heavy 2: not shown
light: B1 light
notes: copies: 1 + 1 + 2
For the molecule B21, the “He/Con 3a” value was 76 % of GpH7-A5/GpH7-B3/GpL16-k0.

B22: GpH7-A5/GpH7-B3 variant E333_15Y/GpL16-k0 (antibody, human IgG1, kappa)
heavy 1: not shown
heavy 2: not shown
light: B1 light
notes: copies: 1 + 1 + 2
Take B22: the “He/Con 3a” value was 101 % of GpH7-A5/GpH7-B3/GpL16-k0.

B23: GpH7-A5/GpH7-B3 variant H268_10E/GpL16-k0 (antibody, human IgG1, kappa)
heavy 1: not shown
heavy 2: not shown
light: B1 light
notes: copies: 1 + 1 + 2
With B23, the “He/Con 3a” value is 184 % of GpH7-A5/GpH7-B3/GpL16-k0.

B24: GpH7-A5/GpH7-B3 variant E269_08L/GpL16-k0 (antibody, human IgG1, kappa)
heavy 1: not shown
heavy 2: not shown
light: B1 light
notes: copies: 1 + 1 + 2
Consider B24, for which the “He/Con 3a” value is 51.5 % of GpH7-A5/GpH7-B3/GpL16-k0.

B25: GpH7-A5/GpH7-B3 variant E269_16H/GpL16-k0 (antibody, human IgG1, kappa)
heavy 1: not shown
heavy 2: not shown
light: B1 light
notes: copies: 1 + 1 + 2
For B25, the “He/Con 3a” value is 50.7 % of GpH7-A5/GpH7-B3/GpL16-k0.

B26: GpH7-A5/GpH7-B3 variant H268_18N/GpL16-k0 (antibody, human IgG1, kappa)
heavy 1: not shown
heavy 2: not shown
light: B1 light
notes: copies: 1 + 1 + 2
As for B26, the “He/Con 3a” value is 103 % of GpH7-A5/GpH7-B3/GpL16-k0.

B27: GpH7-A5/GpH7-B3 variant H268_13S/GpL16-k0 (antibody, human IgG1, kappa)
heavy 1: not shown
heavy 2: not shown
light: B1 light
notes: copies: 1 + 1 + 2
Regarding B27, the “He/Con 3a” value is 121 % of GpH7-A5/GpH7-B3/GpL16-k0.

B28: GpH7-A5/GpH7-B3 variant G236_02A/GpL16-k0 (antibody, human IgG1, kappa)
heavy 1: not shown
heavy 2: not shown
light: B1 light
notes: copies: 1 + 1 + 2
As for B28, the “He/Con 3a” value was 77 % of GpH7-A5/GpH7-B3/GpL16-k0.
